According to paper PMC7963221 (2021):

Tests used:
Assay in all cases: FACS
RaTG13 RBD = molecular target: RaTG13 RBD
Frankfurt 1 RBD = molecular target: Frankfurt 1 RBD
BM48-31 RBD = molecular target: BM48-31 RBD
WIV1 RBD = molecular target: WIV1 RBD
SHC014 RBD = molecular target: SHC014 RBD
Rs4231 RBD = molecular target: Rs4231 RBD
LYRa11 RBD = molecular target: LYRa11 RBD
CS24 RBD = molecular target: CS24 RBD
A021 RBD = molecular target: A021 RBD
Civet 007-2004 RBD = molecular target: Civet 007-2004 RBD
GD-Pangolin RBD = molecular target: GD-Pangolin RBD
[1] = molecular target: SARS-CoV-2 RBD (WT) displayed on the surface of yeast (SARS-CoV-2, UniProt P0DTC2)
[2] = molecular target: SARS-CoV RBD displayed on the surface of yeast (SARS-CoV, UniProt P59594)
Pangolin_GX- RBD = molecular target: Pangolin_GX- RBD

Row | Binder | Kd (RaTG13 RBD) | Kd (Frankfurt 1 RBD) | Kd (BM48-31 RBD) | Kd (WIV1 RBD) | Kd (SHC014 RBD) | Kd (Rs4231 RBD) | Kd (LYRa11 RBD) | Kd (CS24 RBD) | Kd (A021 RBD) | Kd (Civet 007-2004 RBD) | Kd (GD-Pangolin RBD) | Kd [1] | Kd [2] | Kd (Pangolin_GX- RBD)
1 | ADG-3 (antibody, V domains shown) VH: EVQLVESGGGLIQPGGSLRLSCAASGFPFKGTYMTWVRQAPGKGLEWVSIIYSGGDTYYADSVKGRFTISRDNSKNTLFLQMNSLRVEDTAMYYCARDREMAIITERTYGLDVWGQGTMVTVSS VL: QSVLTQPPSASGTPGQRVTISCSGGSSNIGSNSVNWYQQLPGTAPKLLIYSNSQRPSGVPDRFSGSKSGTSASLAISGLQSEDEADYYCAAWDDSLNTFRYVFGTGTKVTVL | 0.88 nM | 0.96 nM | 3.09 nM | 0.72 nM | 0.93 nM | 1.07 nM | 0.92 nM | 1.05 nM | 0.91 nM | 0.9 nM | 0.68 nM | 0.55 nM | 0.91 nM | 
2 | ADG-1 (antibody, V domains shown) VH: QVQLVESGGGLVQPGGSLRLSCSASGFTFSRFAMHWVRQAPGKGLEYVSAINLNGDSKYYTDSVRGRFTISRDNSKNTLYLQMSSVRPDDTAFYYCVKDGGYYDSSGPGHWGQGTLVTVSS VL: EIVLTQSPATLSLSPGERATLSCRASENILHYLAWYQQKPGQAPRLVIYDASRRATGIPGRFSGSGAGTDFTLTINSLEPEDFAVYYCQQRANWPQNFGGGTKVEIK |  | 0.97 nM |  | 0.68 nM |  |  | 0.79 nM | 0.97 nM | 0.95 nM | 0.78 nM | 0.87 nM | 0.73 nM | 1.09 nM | 
3 | ADG-2 (antibody, V domains shown) VH: EVQLVESGGGLVKPGGSLRLSCAASGFTFSSYYMNWVRQAPGKGLEWVSSISEDGYSTYYPDSLKGRFTISRDSAKNSLYLQMNSLRADDTAVYYCARDFSGHTAWAGTGFEYWGQGTLVTVSS VL: QSVLTQPPSVSGAPGQRITISCTGSSSNIGAGYDVHWYQQLPGTAPKLLIYGSSSRNSGVPDRFSGSKSGTSASLAITGLQAEDEADYYCQSYDSSLSVLYTFGTGTKVTVL |  | 0.38 nM |  | 0.42 nM | 0.33 nM | 0.4 nM | 0.47 nM | 0.45 nM | 0.47 nM | 0.35 nM | 0.24 nM | 0.43 nM | 0.39 nM | 1.12 nM
